Assay results from publication PMC3159472.

Target: F-SSB-Ct peptide (SSB-Ct with an N-terminal fluoresceine moiety) (E. coli)
Experiment: fluorescence polarisation

Q: With SSB–ExoI fusion protein as the substance, how does the Kd read?
A: 1100 nM
